Data on one molecule can be found in patent US20160355576A1.

Assay [1] concerns the target misfolded-aggregated human wild-type TTR (human), P02766. The assay can be described thus: direct ELISA, antigen coated at 10 µg/ml. The following applies: remark: other sources report otherwise.
The target in assay [2] is misfolded-aggregated recombinant V30M-TTR (human), P02766. Nature of the assay: direct ELISA, antigen coated at 10 µg/ml. The following applies: remark: other sources report otherwise.
The target of assay [3] is human wild-type TTR protein in native conformation (human) (UniProt P02766). Nature of the assay: SPR, antibody captured by anti-human IgG-Fc, TTR 3.2-316 nM, Langmuir 1:1 fit.
The target in assay [4] is misfolded-aggregated human wild-type TTR (human), P02766. The assay is described as above. To be noted: remark: other sources report otherwise.
For assay [5], the target named is native TTR-L55P (human), P02766. The description is as above. The following applies: remark: other sources report otherwise.
In assay [6] the target is native TTR-V30M (human), P02766. The description is as above. To be noted: remark: other sources report otherwise.

Some results are limits rather than exact numbers.

B1: NI-301.35G11 (antibody, V domains shown)
VH: EVQLVESGGGLVQPGGSLRLSCVASGFTFSSYAMSWVRQVPGKGLEWVSSISGSGDTTKYTDSVKGRFTISRDNSKNTVFLQMSSLRAEDTALYYCVKDGSGRIDPFALWGQGTMVTVSS
VL: EIVMTQSPLSLPVTLGQPASISCRSSRSLVYSDGNIYLNWFQQRPGQSPRRLIYKVSNRDSGVPDRFSGSGSDTDFTLRISRVEAEDVGVYYCMQGTHWPRTFGQGTKVEIK
In the case of B1, the figures for the half-maximal effective concentration (EC50) in assay [1] and in assay [2] were 3.9 nM and 5 nM, respectively. Further, the Kd is over 316 nM in assay [3], 12 nM in assay [4], over 100 nM in assay [5] and 33 nM in assay [6]. The off-rate (koff) came to 0.00027 s⁻¹ in assay [4] and 0.00024 s⁻¹ in assay [6]. In addition, the kon in assay [4] stood at 23000 M⁻¹ s⁻¹; in assay [6], 7400 M⁻¹ s⁻¹.
